Measured values taken from patent publication US20260193644A1, “Compositions and Methods For Modulation of Tumor Suppressors and Oncogenes” (FLAGSHIP PIONEERING INNOVATIONS VII, LLC, priority 2022, published 2026).
No end group written: not given here.

T1: C3AR1 (Homo sapiens, UniProt Q16581)
T1 sequence (Q16581 1-482): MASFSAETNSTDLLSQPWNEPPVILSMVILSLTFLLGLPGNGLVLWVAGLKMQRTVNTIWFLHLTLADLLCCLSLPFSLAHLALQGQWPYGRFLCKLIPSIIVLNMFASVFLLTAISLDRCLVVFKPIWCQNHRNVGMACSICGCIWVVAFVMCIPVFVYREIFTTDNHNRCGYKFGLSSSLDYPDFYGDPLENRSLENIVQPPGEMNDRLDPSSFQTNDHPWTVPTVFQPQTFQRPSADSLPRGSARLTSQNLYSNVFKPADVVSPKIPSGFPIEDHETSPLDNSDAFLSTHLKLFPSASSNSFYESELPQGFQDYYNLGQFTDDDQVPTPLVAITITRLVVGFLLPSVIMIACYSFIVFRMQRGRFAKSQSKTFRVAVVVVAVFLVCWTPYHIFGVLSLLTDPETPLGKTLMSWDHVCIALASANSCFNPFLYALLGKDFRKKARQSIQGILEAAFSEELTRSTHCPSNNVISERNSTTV


Experiments:
Format in all cases: cell-based
[1] = tested on: Jurkat cells; test: Caspase-Glo 3/7 apoptosis assay, peptide-treated Jurkat cells; settings: listed = significant
Protocol: (§1) Cell Culture: Tumor cell lines HCT-116 (Colon Cancer Cell line, ATCC) and U2OS (Osteoscarcoma Cell line, ATCC) cells were grown adherently in ATCC-formulated McCoy's 5a medium supplemented with 10% FBS and 1× penicillin-streptomycin at 37° C. (5% CO2). Jurkat cells (acute T-cell leukemia cell line, ATCC) were grown as suspension cultures in ATCC-formulated RPMI-1640 supplemented with 10% FBS and 1× penicillin-streptomycin at 37° C. (5% CO2). HEP-G2 cells (Liver Cancer Cell line, ATCC) cells were grown adherently in ATCC-formulated Eagle's Minimum Essential Medium (EMEM) supplemented with 10% FBS and 1× penicillin-streptomycin at 37° C. (5% CO2).
(§2) Peptide Treatment: Target protein SEQ ID NO: 37997 was synthesized through Fluorenylmethyloxycarbonyl (Fmoc) protection group chemistry using Solid Phase Peptide Synthesis (SPPS). 5 μM of target peptide and control peptides were added to a 96 well plate containing 10,000 cells (100 μL/well). A white-walled 96-well plate adequate for cell culture and compatible with the luminometer was used. (Corning)
(§3) Apoptosis Assay: Following 24 hrs of peptide treatment, an equal volume reconstituted Caspase-Glo® 3/7 assay reagent mixture (Promega) was added to the cells. The contents of wells were gently mixed using a plate shaker at 300-500 rpm for 30 seconds. The plate was then Incubate at room temperature for 3 hours. The treated plates were then read for luminescence on Promega™ GloMax® Plate Reader. A blank reaction that contained caspase-Glo® 3/7 reagent, vehicle and cell culture medium without cells was used to measure background luminescence. The blank reaction values were subtracted from experimental values. A negative control that contained caspase-Glo® 3/7 reagent and vehicle-treated cells in medium was included to determine the basal caspase activity of the cell culture system. Significant difference in apoptosis was determined using ANOVA analysis by comparing cells treated with SEQ ID NO: 37997 peptide to cells treated with an irrelevant control peptide, or vehicle control treated cells.

[2] = tested on: HepG2 cells; test: Caspase-Glo 3/7 apoptosis assay, peptide-treated HepG2 cells; settings: listed = significant
Protocol: Cell Culture: Tumor cell lines HCT-116 (Colon Cancer Cell line, ATCC) and U2OS (Osteoscarcoma Cell line, ATCC) cells were grown adherently in ATCC-formulated McCoy's 5a medium supplemented with 10% FBS and 1× penicillin-streptomycin at 37° C. (5% CO2). Jurkat cells (acute T-cell leukemia cell line, ATCC) were grown as suspension cultures in ATCC-formulated RPMI-1640 supplemented with 10% FBS and 1× penicillin-streptomycin at 37° C. (5% CO2). HEP-G2 cells (Liver Cancer Cell line, ATCC) cells were grown adherently in ATCC-formulated Eagle's Minimum Essential Medium (EMEM) supplemented with 10% FBS and 1× penicillin-streptomycin at 37° C. (5% CO2). […]
Apoptosis Assay: Following 24 hrs of peptide treatment, an equal volume reconstituted Caspase-Glo® 3/7 assay reagent mixture (Promega) was added to the cells. […] The treated plates were then read for luminescence on Promega™ GloMax® Plate Reader. A blank reaction that contained caspase-Glo® 3/7 reagent, vehicle and cell culture medium without cells was used to measure background luminescence. […] Significant difference in apoptosis was determined using ANOVA analysis by comparing cells treated with SEQ ID NO: 37997 peptide to cells treated with an irrelevant control peptide, or vehicle control treated cells.

[3] = target: T1, C3AR1; test: PathHunter β-Arrestin C3AR1 human complement peptide GPCR agonist assay (gpcrMAX screening and hit-confirmation); settings: for % activity with respect to known agonist, C3A Receptor Agonist: hit-confirmation
Protocol: SEQ ID NO: 30949 blocks CXCR4 and cancer cell migration, making it suitable in the treatment of multiple cancers. Whereas SEQ ID NO: 34229 agonizes C3AR1, a key regulator of immune response and inflammation. The target proteins SEQ ID NO: 30949 and SEQ ID NO: 34229 were treated with gpcrMAX, which is a comprehensive panel covering 168 G protein-coupled receptors (GPCRs) from over 60 distinct receptor families. This panel utilizes PathHunter® β-Arrestin technology (Eurofins DiscoverX). PathHunter β-Arrestin GPCR cell lines are engineered to co-express the ProLink™ (PK) tagged GPCR and the Enzyme Acceptor (EA) tagged β-Arrestin. Activation of the GPCR-PK induces β-Arrestin-EA recruitment, forcing complementation of the two β-galactosidase enzyme fragments (EA and PK). The resulting functional enzyme hydrolyzes substrate to generate a chemiluminescent signal.
Cell Handling: PathHunter® cell lines were expanded from freezer stocks according to standard procedures. Cells were seeded in a total volume of 20 μL into white walled, 384-well microplates and incubated at 37° C. for the appropriate time prior to testing. […]
Signal Detection: Assay signal was generated through a single addition of 12.5 or 15 μL (50% v/v) of PathHunter® Detection reagent cocktail, followed by a one-hour incubation at room temperature. Microplates were read following signal generation with a PerkinElmer Envision™ instrument for chemiluminescent signal detection.
Data Analysis: Compound activity was analyzed using CBIS data analysis suite (ChemInnovation, CA). For agonist mode assays, percentage activity was calculated using the following formula: % Activity=100%×(mean RLU of test sample−mean RLU of vehicle control)/(mean MAX control ligand−mean RLU of vehicle control). For antagonist mode assays, percentage inhibition was calculated using the following formula: % Inhibition=100%×(1−(mean RLU of test sample−mean RLU of vehicle control)/(mean RLU of EC80 control−mean RLU of vehicle control)).

[4] = tested on: U2OS cells; test: Caspase-Glo 3/7 apoptosis assay, peptide-treated U2OS cells; settings: listed = significant
Protocol: as §1, §2, §3

[5] = tested on: HCT116 colon cancer cell line; test: Maestro Z impedance-based assay on HCT116 cells stably over-expressing target protein; settings: 2 days
Protocol: Over-expression: Stable over-expression tumor cell lines were made by transduction using lentivirus. For virus production, HEK-293T cells were cultured in DMEM with high glucose and GlutaMAX™ medium (ThermoFisher) supplemented with 10% FBS. After 24 h, cells were transfected using lipofectamine 3000 (ThermoFisher) of Lentiviral packaging plasmid mix (CELLECTA) and pGenLenti plasmids (GenScript Inc) containing: 1) no insert, 2) Target Protein encoding sequence, and 3) the AP2A1 protein (positive control for cell proliferation; https://doi.org/10.1038/sj.one.1205216), into HCT116 (Colon cancer cell line; ATCC). A Myc-tag (EQKLISEEDL) was added to the c-terminus of the expressed protein. After 48 hr post-transfection, culture media containing viruses was collected, loaded onto a 10 ml syringe and filtered through a 0.45 μm filter. […]
Maestro Z Impedance-based assay: The Maestro Z platform (Axion Biosystems) uses impedance measurements (ohms, (2) to quantify the presence of cells on the electrode. Since impedance is noninvasive and label-free, impedance assay is used to quantify dynamic cellular growth over time. For impedance recording, cells were seeded in 96 well assay plate, and the plate was docked in the Maestro Z and the automatic environment controls set the chamber to 37° C. and 5% CO2. Impedance measurements were recorded every minute for the 2 days.

[6] = tested on: HCT116 colon cancer cell line; test: WST-1 proliferation assay on HCT116 cells stably over-expressing target protein; settings: low serum (0.1% FBS); 48 hours
Protocol: Over-expression: Stable over-expression tumor cell lines were made by transduction using lentivirus. For virus production, HEK-293T cells were cultured in DMEM with high glucose and GlutaMAX™ medium (ThermoFisher) supplemented with 10% FBS. After 24 h, cells were transfected using lipofectamine 3000 (ThermoFisher) of Lentiviral packaging plasmid mix (CELLECTA) and pGenLenti plasmids (GenScript Inc) containing: 1) no insert, 2) Target Protein encoding sequence, and 3) the AP2A1 protein (positive control for cell proliferation; https://doi.org/10.1038/sj.one.1205216), into HCT116 (Colon cancer cell line; ATCC). A Myc-tag (EQKLISEEDL) was added to the c-terminus of the expressed protein. After 48 hr post-transfection, culture media containing viruses was collected, loaded onto a 10 ml syringe and filtered through a 0.45 μm filter. For cell transduction, HCT116 colorectal cancer cells were seeded in 6-well plates, the virus was added to the cells. After post-transduction, stable cell mixed populations are selected for with puromycin for 14 days. Expression of the Target Protein and controls are confirmed by immunoblot of 50 μg of cell lysate using anti-myc-tag polyclonal antibody (CST).
Proliferation: Polyclonal cell lines that over-express the Target Protein or control, wild-type HCT-116 cells, were plated in 96 well plate (10,000 or 5,000 cells per well) grown in standard media in both low serum (0.1% FBS) and high serum (10% FBS) conditions, respectively. After 48 hours, the cells are subjected to the WST-1 ([…]) assay. The WST-1 assay (Sigma) is a measure of the metabolic activity of group of cells. The higher the metabolic activity the higher the proliferation rate. Significant differences in proliferation are determined by comparing protein-expressing cell lines with a stable cell line of the empty expression vector (control) using ANOVA analysis.

Molecule | peptides inducing significant apoptosis vs vehicle control [1] | z-score compared to vehicle control (peptides inducing significant apoptosis) [2] | proliferation over time (impedance) on over-expression vs Empty Vector [5] | further results
SEQ ID NO: 34224: ORF peptide; sequence only in Sequence Listing (MSFDHPEKNGPWPADPINLPSHG; listed as Homo sapiens) | SEQ ID NO: 34224 | SEQ ID NO: 34224 | – | –
SEQ ID NO: 34229: novel peptide GPCR ligand that agonizes C3AR1; sequence only in Sequence Listing (MWILRDRAVHELQAVLLALVLGR; listed as Homo sapiens) | SEQ ID NO: 34229 | – | – | GPCR ligand mode at C3AR1 ([3]; gpcrMAX panel): agonist of C3AR1; % activity with respect to known agonist, C3A Receptor Agonist ([3]; 0.3 μM): significant activity; % activity with respect to known agonist, C3A Receptor Agonist ([3]; 1 μM): significant activity; z-score compared to vehicle control (peptides inducing significant apoptosis) [4]: SEQ ID NO: 34229
SEQ ID NO: 30462: target protein over-expressed (Myc-tagged) in stable HCT116 cell line; oncogene (METFEIFYLKCIRVNLISRQLNTFFLAVLLVVCMPCFHSVCTGKRT; cysteine pairing not given here; also: Myc tag; listed as Homo sapiens) | – | – | significantly increases proliferation | –
AP2A: published oncoprotein, over-expressed positive control for cell proliferation (protein, UniProt O95782 1-977, looked up) AP-2 complex subunit alpha-1: MPAVSKGDGMRGLAVFISDIRNCKSKEAEIKRINKELANIRSKFKGDKALDGYSKKKYVCKLLFIFLLGHDIDFGHMEAVNLLSSNKYTEKQIGYLFISVLVNSNSELIRLINNAIKNDLASRNPTFMCLALHCIANVGSREMGEAFAADIPRILVAGDSMDSVKQSAALCLLRLYKASPDLVPMGEWTARVVHLLNDQHMGVVTAAVSLITCLCKKNPDDFKTCVSLAVSRLSRIVSSASTDLQDYTYYFVPAPWLSVKLLRLLQCYPPPEDAAVKGRLVECLETVLNKAQEPPKSKKVQHSNAKNAILFETISLIIHYDSEPNLLVRACNQLGQFLQHRETNLRYLALESMCTLASSEFSHEAVKTHIDTVINALKTERDVSVRQRAADLLYAMCDRSNAKQIVSEMLRYLETADYAIREEIVLKVAILAEKYAVDYSWYVDTILNLIRIAGDYVSEEVWYRVLQIVTNRDDVQGYAAKTVFEALQAPACHENMVKVGGYILGEFGNLIAGDPRSSPPVQFSLLHSKFHLCSVATRALLLSTYIKFINLFPETKATIQGVLRAGSQLRNADVELQQRAVEYLTLSSVASTDVLATVLEEMPPFPERESSILAKLKRKKGPGAGSALDDGRRDPSSNDINGGMEPTPSTVSTPSPSADLLGLRAAPPPAAPPASAGAGNLLVDVFDGPAAQPSLGPTPEEAFLSELEPPAPESPMALLADPAPAADPGPEDIGPPIPEADELLNKFVCKNNGVLFENQLLQIGVKSEFRQNLGRMYLFYGNKTSVQFQNFSPTVVHPGDLQTQLAVQTKRVAAQVDGGAQVQQVLNIECLRDFLTPPLLSVRFRYGGAPQALTLKLPVTINKFFQPTEMAAQDFFQRWKQLSLPQQEAQKIFKANHPMDAEVTKAKLLGFGSALLDNVDPNPENFVGAGIIQTKALQVGCLLRLEPNAQAQMYRLTLRTSKEPVSRHLCELLAQQF | – | – | significantly increases proliferation | proliferation (WST-1) on over-expression vs Empty Vector [6]: significantly increases proliferation
SEQ ID NO: 26966: ORF peptide; sequence only in Sequence Listing (peptide, listed as Homo sapiens) VSPRFLVLKSSPAHRDSDSPQTPRLRVMESRTLLLLFSGAVALIQTWADYNYNQGRNDLIFTLQLWKRQ | – | SEQ ID NO: 26966 | – | –
